Substitutions are numbered along the chain they refer to. Values belong to the binder of their own block, whether it stands above or below them.
What was measured:
human PDL1-his = biological target: T1, human PDL1-his (human, UniProt Q9NZQ7 19-239); experiment: SPR Biacore T200, antibody captured on Protein A chip
T1 construct: bought; also called hPDL1
Procedure: (§1) After dissociation was completed for each cycle, the biosensor chip was washed with 10 mM Gly-HCl at pH 1.5 for regeneration. Data were fitted using a 1:1 model.

human TIGIT-his = biological target: T2, human TIGIT-his (human, UniProt Q495A1 22-141, limits assumed); experiment: as above
T2 construct: bought; also called hTIGIT
T2 sequence (looked up): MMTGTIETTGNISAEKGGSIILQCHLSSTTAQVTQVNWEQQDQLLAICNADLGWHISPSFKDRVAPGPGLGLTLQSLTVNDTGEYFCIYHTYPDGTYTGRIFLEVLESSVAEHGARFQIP
Procedure: as §1

hIL-5 = biological target: T3, hIL-5 (human, UniProt P05113 20-134); experiment: ELISA
T3 construct: bought
Procedure: (§2) For an antibody targeting a soluble protein, the binding activity of the antibody against the soluble protein was detected by ELISA. […] After the blocking was completed, the blocking solution was discarded; and the plate was washed 3 times with a PBST buffer (pH 7.4, PBS containing 0.1% tween-20). 100 μL of the antibody solution diluted in a gradient was added to each well, and the mixture was incubated at 37° C. for 1 h. After the incubation was completed, the plate was washed 3 times with PBST.

hTSLP = biological target: T4, hTSLP (human, UniProt Q969D9 29-159); experiment: ELISA
T4 construct: bought
Procedure: as §2

[1] = biological target: T5, B7H3 on the recombinant cell line CT26-B7H3 (UniProt Q5ZPR3 29-534, limits assumed); experiment: FACS, CT26-B7H3 cells
T5 construct: whole, on cells
T5 sequence (looked up): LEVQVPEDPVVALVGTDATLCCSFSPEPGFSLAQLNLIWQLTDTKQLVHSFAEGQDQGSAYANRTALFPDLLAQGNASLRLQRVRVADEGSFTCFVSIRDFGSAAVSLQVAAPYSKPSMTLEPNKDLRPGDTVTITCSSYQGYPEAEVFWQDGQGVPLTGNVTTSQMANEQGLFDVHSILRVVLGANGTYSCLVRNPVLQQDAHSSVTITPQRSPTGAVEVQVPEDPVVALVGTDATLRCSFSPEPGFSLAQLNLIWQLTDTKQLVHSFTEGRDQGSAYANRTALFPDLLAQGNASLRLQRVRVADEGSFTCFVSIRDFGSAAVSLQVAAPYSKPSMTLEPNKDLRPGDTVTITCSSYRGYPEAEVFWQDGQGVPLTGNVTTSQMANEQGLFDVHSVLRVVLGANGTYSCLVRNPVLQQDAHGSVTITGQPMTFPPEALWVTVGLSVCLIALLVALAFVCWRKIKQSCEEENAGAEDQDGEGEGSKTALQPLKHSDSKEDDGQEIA

hB7H3 antigen protein = biological target: T6, hB7H3 antigen protein (human, UniProt Q5ZPR3 29-461); experiment: SPR Biacore T200, antibody captured on Protein A chip
T6 construct: prepared in the laboratory
T6 sequence: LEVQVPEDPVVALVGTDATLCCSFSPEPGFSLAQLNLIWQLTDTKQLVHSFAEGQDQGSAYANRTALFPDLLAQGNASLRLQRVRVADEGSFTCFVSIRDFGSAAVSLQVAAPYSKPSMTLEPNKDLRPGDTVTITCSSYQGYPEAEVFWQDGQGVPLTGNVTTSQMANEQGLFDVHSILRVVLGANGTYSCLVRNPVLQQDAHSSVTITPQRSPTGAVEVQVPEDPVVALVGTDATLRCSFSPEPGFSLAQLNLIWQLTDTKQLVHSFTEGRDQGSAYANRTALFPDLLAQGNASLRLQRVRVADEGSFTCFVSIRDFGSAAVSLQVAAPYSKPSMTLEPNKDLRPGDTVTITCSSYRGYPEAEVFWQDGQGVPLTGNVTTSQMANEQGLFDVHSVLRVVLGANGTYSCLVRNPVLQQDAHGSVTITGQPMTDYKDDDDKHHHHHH
Procedure: The affinity of a test antibody for an antigen protein was determined by using a Biacore T200 (GE) instrument. […] The data obtained from the experiment was fitted with BIAevaluation version 4.1, GE software using a (1:1) Langmuir model to obtain affinity values.

hNGF = biological target: T7, hNGF (human, UniProt P01138 122-241, limits assumed); experiment: ELISA
T7 construct: bought
T7 sequence (P01138 122-241 limits assumed): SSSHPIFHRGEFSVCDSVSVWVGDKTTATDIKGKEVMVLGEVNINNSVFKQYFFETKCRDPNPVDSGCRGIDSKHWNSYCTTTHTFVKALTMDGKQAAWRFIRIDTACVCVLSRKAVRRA
Procedure: For an antibody targeting a soluble protein, the binding activity of the antibody against the soluble protein was detected by ELISA. […] After the blocking was completed, the blocking solution was discarded; and the plate was washed 3 times with a PBST buffer (pH 7.4, PBS containing 0.1% tween-20). 100 μL of the antibody solution diluted in a gradient was added to each well, and the mixture was incubated at 37° C. for 1 h. After the incubation was completed, the plate was washed 3 times with PBST. […] The plate was washed 3 times with PBST. […] The reaction was stopped by adding 50 μL of 1 M H₂SO₄ to each well. The absorbance values at 450 nm were read on a microplate reader, the binding curves of the antibodies to an antigen were fitted with software, and the EC₅₀ values were calculated.

T1 sequence (Q9NZQ7 19-239 limits assumed): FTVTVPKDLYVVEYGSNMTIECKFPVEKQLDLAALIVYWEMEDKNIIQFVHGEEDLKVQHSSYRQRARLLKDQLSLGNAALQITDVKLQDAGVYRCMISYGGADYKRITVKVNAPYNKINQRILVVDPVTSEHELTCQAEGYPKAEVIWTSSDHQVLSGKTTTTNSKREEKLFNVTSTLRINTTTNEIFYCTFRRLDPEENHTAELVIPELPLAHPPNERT

Kd (human PDL1-his): 0.0417 nM
koff (human PDL1-his): 8.67e-05 s⁻¹
kon (human PDL1-his): 2.08e+06 M⁻¹ s⁻¹
B1: h1831K (antibody, human IgG1, kappa, V domains shown)
VH: QVQLVQSGAEVKKPGASVKVSCKASGYTFTSYWMHWVRQAPGQGLEWMGRITPSSGFAMYNEKFKNRVTMTRDTSTSTVYMELSSLRSEDTAVYYCARGGSSYDYFDYWGQGTTVTVSS
VL: DIVLTQSPASLAVSPGQRATITCRASESVSIHGTHLMHWYQQKPGQPPKLLIYAASKLESGVPARFSGSGSGTDFTLTINPVEAEDTANYYCQQSFEDPLTFGQGTKLEIKR
notes: also called P-IgG1; PDL1 monoclonal antibody

Kd (human TIGIT-his): 0.0651 nM
koff (human TIGIT-his): 0.000139 s⁻¹
kon (human TIGIT-his): 2.14e+06 M⁻¹ s⁻¹
B2: h1708-04 (antibody, human IgG1, kappa, V domains shown)
VH: EVQLVQSGAEVKKPGASVKVSCKASGYTFTNYWMHWVRQAPGQGLEWMGRIDPDSTGSKYNEKFKTRVTMTRDTSTSTVYMELSSLRSEDTAVYYCAREGAYGYYFDYWGQGTLVTVSS
VL: DIQMTQSPSSLSASVGDRVTITCRASENIYSYLAWYQQKPGKSPKLLIYNARTLAEGVPSRFSGSGSGTDFTLTISSLQPEDFATYYCQYHSGSPLPFGGGTKVEIKR
notes: also called T-IgG1; TIGIT monoclonal antibody

EC50 (hIL-5): 17.4 nM
EC50 (hTSLP): 3.23 nM
B3: HJ-3 (bispecific antibody, human IgG1, kappa, L234A L235A)
heavy 1: not shown
light 1: DIQMTQSPSSVSASVGDRVTITCRASQDIANYLSWYQQKPGKSPKLLIYGTSNLEVGVPSRFSGSRSGTDFTLTISSLQPEDFATYYCLQDKEFPRTFGGGTKVEIKGGGGSSGAPRFLTRPLAFVVSVGKDATLSSQIVGNPTPQVSWEKDKQPVTAGARFRLAQDGDLYRLKILDLQLSDSGQYVSRARNAIGEAFACLGLQVDAEA
heavy 2: EVQLVQSGAEVKKPGSSVKVSCKASGYTFSNYLIEWVRQAPGQGLEWIGVIDPGVGDTNYNENFKGRATLTADKSTSTAYIELSSLRSEDTAVYYCAREDNTGTAFDYWGQGTTVTVSSASTKGPSVFPLAPSSKSTSGGTAALGCLVKDYFPEPVTVSWNSGALTSGVHTFPAVLQSSGLYSLSSVVTVPSSSLGTQTYICNVNHKPSNTKVDKKVEPKSCDKTHTCPPCPAPEAAGGPSVFLFPPKPKDTLMISRTPEVTCVVVDVSHEDPEVKFNWYVDGVEVHNAKTKPREEQYNSTYRVVSVLTVLHQDWLNGKEYKCKVSNKALPAPIEKTISKAKGQPREPQVCTLPPSREEMTKNQVSLSCAVKGFYPSDIAVEWESNGQPENNYKTTPPVLDSDGSFFLVSKLTVDKSRWQQGNVFSCSVMHEALHNHYTQKSLSLSPGKDYKDDDDK
light 2: SIVMTQTPLSLSVTPGQPASISCKASQSVSSDVTWYLQKPGQSPQLLIYYVSEHYTGVPDRFSGSGYGTDFTLKISRVEAEDVGVYYCQQHHRFPLTFGQGTKLEIKRTVAAPSVFIFPPSDEQLKSGTASVVCLLNNFYPREAKVQWKVDNALQSGNSQESVTEQDSKDSTYSLSSTLTLSKADYEKHKVYACEVTHQGLSSPVTKSFNRGEC

EC50 (hIL-5): 18.7 nM
EC50 (hTSLP): 3.33 nM
B4: HJ-8 (bispecific antibody, human IgG1, kappa, L234A L235A)
heavy 1: not shown
light 1: B3 light 1 with G108R, G109T, G110V, G111A, L123K, F125S, T144F, A160V, I194H
heavy 2: EVQLVQSGAEVKKPGSSVKVSCKASGYTFSNYLIEWVRQAPGQGLEWIGVIDPGVGDTNYNENFKGRATLTADKSTSTAYIELSSLRSEDTAVYYCAREDNTGTAFDYWGQGTTVTVSSASTKGPSVFPLAPSSKSTSGGTAALGCLVKDYFPEPVTVSWNSGALTSGVHTFPAVLQSSGLYSLSSVVTVPSSSLGTQTYICNVNHKPSNTKVDKKVEPKSCDKTHTCPPCPAPEAAGGPSVFLFPPKPKDTLMISRTPEVTCVVVDVSHEDPEVKFNWYVDGVEVHNAKTKPREEQYNSTYRVVSVLTVLHQDWLNGKEYKCKVSNKALPAPIEKTISKAKGQPREPQVCTLPPSREEMTKNQVSLSCAVKGFYPSDIAVEWESNGQPENNYKTTPPVLDSDGSFFLVSKLTVDKSRWQQGNVFSCSVMHEALHNHYTQKSLSLSPGK
light 2: B3 light 2

EC50 (hIL-5): 9.46 nM
EC50 (hTSLP): 3 nM
B5: HJ-11 (bispecific antibody, human IgG1, kappa, L234A L235A)
heavy 1: not shown
light 1: DIQMTQSPSSVSASVGDRVTITCRASQDIANYLSWYQQKPGKSPKLLIYGTSNLEVGVPSRFSGSRSGTDFTLTISSLQPEDFATYYCLQDKEFPRTFGGGTKVEIKRTVASSGCPRFLTRPKASVVSVGKDATLSCQIVGNPFPQVSWEKDKQPVTAGVRFRLAQDGDLYRLKILDLQLSDSGQYVCRARNAHGEAFACLGLQVDAEA
heavy 2: B4 heavy 2
light 2: B3 light 2

EC50 (hIL-5): 17.7 nM
EC50 (hTSLP): 2.18 nM
B6: HJ-7 (bispecific antibody, human IgG1, kappa, L234A L235A)
heavy 1: not shown
light 1: B5 light 1 with R108G, T109G, V110G, A111G, C115A
heavy 2: B4 heavy 2
light 2: B3 light 2

EC50 (hIL-5): 10.9 nM
EC50 (hTSLP): 3.18 nM
B7: HJ-9 (bispecific antibody, human IgG1, kappa, L234A L235A)
heavy 1: not shown
light 1: B5 light 1 with C115A, R121C, C137S, C188S
heavy 2: B4 heavy 2
light 2: B3 light 2

EC50 (hIL-5): 20.8 nM
EC50 (hTSLP): 3.17 nM
B8: HJ-10 (bispecific antibody, human IgG1, kappa, L234A L235A)
heavy 1: not shown
light 1: B5 light 1 with C115A
heavy 2: B4 heavy 2
light 2: B3 light 2

EC50 (hIL-5): 16 nM
EC50 (hTSLP): 2.64 nM
B9: HJ-5 (bispecific antibody, human IgG1, kappa, L234A L235A)
heavy 1: not shown
light 1: B3 light 1 with L123K, F125S, T144F, A160V, I194H
heavy 2: B4 heavy 2
light 2: B3 light 2

EC50 (hIL-5): 37 nM
EC50 (hTSLP): 2.88 nM
B10: HJ-6 (bispecific antibody, human IgG1, kappa, L234A L235A)
heavy 1: not shown
light 1: B3 light 1 with R121C, L123K, F125S, T144F, A160V, I194H
heavy 2: B4 heavy 2
light 2: B3 light 2

EC50 [1]: 1.29 nM
Kd (hB7H3 antigen protein): 13.1 nM
koff (hB7H3 antigen protein): 0.00206 s⁻¹
kon (hB7H3 antigen protein): 157000 M⁻¹ s⁻¹
B11: F0 (antibody, human IgG1, lambda)
heavy: not shown
light: DTVVTQEPSFSVSPGGTVTLTCGLSSGSVSTSHYPSWYQQTPGQAPRMLIYNTNTRSSGVPDRFSGSILGNKAALTITGAQADDESDYYCAIHVDRDIWVFGGGTKLTVLGQPKAAPSVTLFPPSSEELQANKATLVCLISDFYPGAVTVAWKADSSPVKAGVETTTPSKQSNNKYAASSYLSLTPEQWKSHRSYSCQVTHEGSTVEKTVAPTECS

EC50 (hNGF): 3.19 nM
B12: I2 (antibody)
heavy: not shown
light: DIQMTQSPSSLSASVGDRVTITCRASQSISNNLNWYQQKPGKAPKLLIYYTSRFHSGVPSRFSGSGSGTDFTFTISSLQPEDIATYYCQQEHTLPYTFGQGTKLEIKSGAPRFLTRPKSYTVSVGKDASLSSQIVGNPTPQVSWEKDQQPVAAGARFRLAQDGDLYRLKILDLALGDSGQYVSRARNAIGEAFACVGLQVDAEA

EC50 (hNGF): 2.99 nM
B13: I3 (antibody)
heavy: not shown
light: B12 light with K118L, S119A, Y120F, T121V, S129T, Q148K, A152T, A174Q, G176S, V196L

EC50 (hNGF): 4.12 nM
B14: I6 (antibody)
heavy: not shown
light: DIQMTQSPSSLSASVGDRVTITCRASQSISNNLNWYQQKPGKAPKLLIYYTSRFHSGVPSRFSGSGSGTDFTFTISSLQPEDIATYYCQQEHTLPYTFGQGTKLEIKSGAPRFLTRPLAFVVSVGKDATLSSQIVGNPTPQVSWEKDQLPVTAGARFRLAQDGDLYRLKILDLTLSDSGQYVSRARNAIGEAFACVGLEVGAEA

EC50 (hNGF): 3.59 nM
B15: I5 (antibody)
heavy: not shown
light: B14 light

EC50 (hNGF): 3.15 nM
B16: I7 (antibody)
heavy: not shown
light: B14 light with A119S, F120Y, T129S, T174Q

EC50 (hNGF): 4.13 nM
B17: I4 (antibody)
heavy: not shown
light: B14 light

Source: patent US20240392020A1 (JIANGSU HENGRUI PHARMACEUTICALS, published 2024)
